Common to all, as to test: cross-linking + co-IP
Test [1] has as its target Vps35p (S. cerevisiae (endogenous in strain AHY63)) (UniProt P34110).
The target in test [2] is A-ALP (S. cerevisiae).
Test [3] deals with A-ALP (S. cerevisiae). The source holds these as a separate data set.
Test [4] concerns the target A-ALP (S. cerevisiae). This is another data set of the same source.

Like-named read-outs stand apart in the source and are kept apart here.

This is an account of results in PMC2192648.

On to A-ALP, for which the percent of A-ALP immunoprecipitated by anti-Vps35p after cross-linking in test [1] turned out to be 5%.

B1: Vps35p (natural protein)
chain: MAYADSPENAIAVIKQRTALMNRCLSQHKLMESLQHTSIMLTELRNPNLSPKKYYELYVIIFDSLTNLSTYLIENHPQNHHLADLYELVQYTGNVVPRLYLMITVGTSYLTFNEAPKKEILKDMIEMCRGVQNPIRGLFLRYYLSQRTKELLPEDDPSFNSQFIMNNFIEMNKLWVRLQHQGPLRERETRTRERKELQILVGSQLVRLSQIIDDNFQMYKQDILPTILEQVIQCRDLVSQEYLLDVICQVFADEFHLKTLDTLLQTTLHLNPDVSINKIVLTLVDRLNDYVTRQLEDDPNATSTNAYLDMDVFGTFWDYLTVLNHERPDLSLQQFIPLVESVIVLSLKWYPNNFDNLNKLFELVLQKTKDYGQKNISLESEHLFLVLLSFQNSKLQLTSSTTAPPNSPVTSKKHFIFQLISQCQAYKNILALQSISLQKKVVNEIIDILMDREVEEMADNDSESKLHPPGHSAYLVIEDKLQVQRLLSICEPLIISRSGPPANVASSDTNVDEVFFNRHDEEESWILDPIQEKLAHLIHWIMNTTSRKQTMKNKIQFSLEAQLEILLLIKSSFIKGGINVKYTFPAIITNFWKLMRKCRMIQEYLLKKRPDNKTLLSHYSNLLKQMFKFVSRCINDIFNSCNNSCTDLILKLNLQCAILADQLQLNEISYDFFSQAFTIFEESLSDSKTQLQALIYIAQSLQKTRSLYKEAYYDSLIVRCTLHGSKLLKKQDQCRAVYLCSHLWWATEISNIGEEEGITDNFYRDGKRVLECLQRSLRVADSIMDNEQSCELMVEILNRCLYYFIHGDESETHISIKYINGLIELIKTNLKSLKLEDNSASMITNSISDLHITGENNVKASSNADDGSVITDKESNVAIGSDGTYIQLNTLNGSSTLIRGVVATASGSKLLHQLKYIPIHHFRRTCEYIESQREVDDRFKVIYV
On to B1, for which the percent of total Vps35p cross-linked with A-ALP (S. cerevisiae) [2] is 10%; in the test with A-ALP (S. cerevisiae) [3] it was 26%; in the test with A-ALP (S. cerevisiae) [4], 16%.
